Molecular target: GFP-tagged tomosyn1 (GFP-Tomosyn1), wild type (rat) (UniProt Q9WU70)
Test: co-IP; GFP antiserum and protein G agarose, overnight, 300 ug extract of INS 832/13 cells expressing GFP-tomosyn1 constructs; lysis buffer with 1% Triton X-100, 150 mM NaCl, 25 mM N-ethylmaleimide; blot; cells in regular media or treated with 10 mM glucose or 30 mM KCl (15 min) in KRB

Chain of UniProt Q9WU70 (Q9WU70 whole entry): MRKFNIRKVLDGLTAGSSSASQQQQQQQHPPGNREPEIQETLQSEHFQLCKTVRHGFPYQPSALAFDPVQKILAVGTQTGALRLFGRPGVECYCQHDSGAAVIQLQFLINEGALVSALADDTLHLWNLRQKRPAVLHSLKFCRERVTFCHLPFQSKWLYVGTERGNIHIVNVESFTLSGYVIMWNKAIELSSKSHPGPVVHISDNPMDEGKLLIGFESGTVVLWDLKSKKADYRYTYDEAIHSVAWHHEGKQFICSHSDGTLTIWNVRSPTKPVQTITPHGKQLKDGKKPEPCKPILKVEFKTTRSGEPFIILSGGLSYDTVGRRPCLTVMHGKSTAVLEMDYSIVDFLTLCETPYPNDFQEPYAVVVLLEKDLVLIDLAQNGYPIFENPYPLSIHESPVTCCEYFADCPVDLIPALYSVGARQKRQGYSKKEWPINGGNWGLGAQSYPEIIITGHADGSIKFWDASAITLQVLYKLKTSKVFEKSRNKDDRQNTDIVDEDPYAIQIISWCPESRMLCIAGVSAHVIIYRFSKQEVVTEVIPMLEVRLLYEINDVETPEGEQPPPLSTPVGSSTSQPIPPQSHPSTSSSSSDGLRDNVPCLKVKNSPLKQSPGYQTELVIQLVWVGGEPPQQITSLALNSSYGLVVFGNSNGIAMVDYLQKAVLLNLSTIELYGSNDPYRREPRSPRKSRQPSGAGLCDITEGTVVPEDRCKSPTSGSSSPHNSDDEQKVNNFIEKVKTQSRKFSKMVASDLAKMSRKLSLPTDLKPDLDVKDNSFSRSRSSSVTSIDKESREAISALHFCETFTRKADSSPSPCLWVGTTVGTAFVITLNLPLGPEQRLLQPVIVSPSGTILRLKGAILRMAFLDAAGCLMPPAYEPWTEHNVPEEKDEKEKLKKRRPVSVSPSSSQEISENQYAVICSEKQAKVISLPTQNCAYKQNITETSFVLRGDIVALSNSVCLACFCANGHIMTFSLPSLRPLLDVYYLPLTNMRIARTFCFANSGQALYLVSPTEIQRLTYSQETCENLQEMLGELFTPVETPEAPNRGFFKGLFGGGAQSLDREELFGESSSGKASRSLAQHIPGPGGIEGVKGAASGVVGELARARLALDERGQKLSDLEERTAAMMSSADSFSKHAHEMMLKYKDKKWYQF

B1: secretagogin (INS 832/13 cells) (natural protein)
chain: MDNAHRQTQAHLDAACFWQIWQRFDKDEKGYIKETELDAFFDDLLAKFGIEDTLMEENVQKMKEQLMVGHDISKEGRILMKELASMFLSEDENFLLFFRLETPLDNSVEFMQIWRKYDADSSGFISAAELSNFLRDLFLHHKKVISEAELEEYTSTMEKIFDRNKDGRLDLNDLARILALQENFLLQFKMDASSTEERKRDFEKIFAHYDVSKTGALEGPEVDGFVKDMMELVQPSISGVDLDKFREILLRHCDVNKDGKIQKSELALCLGLKINP
Work on B1 yielded a percent decrease of the interaction after KCl stimulation of 65.3% and a percent decrease of the interaction after glucose stimulation of 44.6%.

Reference: publication PMC5428262
